In PMC5069480, “MPP2 is a postsynaptic MAGUK scaffold protein that links SynCAM1 cell adhesion molecules to core components of the postsynaptic density” (Scientific Reports, 2016):

Target: T1, bacterially produced MPP2 PDZ-SH3-GK (MPP2 PSG module) (mouse)
T1 construct: source: E. coli Rosetta, purified (Ni-NTA, Superdex 75)
T1 sequence (Q9WV34 whole entry, looked up): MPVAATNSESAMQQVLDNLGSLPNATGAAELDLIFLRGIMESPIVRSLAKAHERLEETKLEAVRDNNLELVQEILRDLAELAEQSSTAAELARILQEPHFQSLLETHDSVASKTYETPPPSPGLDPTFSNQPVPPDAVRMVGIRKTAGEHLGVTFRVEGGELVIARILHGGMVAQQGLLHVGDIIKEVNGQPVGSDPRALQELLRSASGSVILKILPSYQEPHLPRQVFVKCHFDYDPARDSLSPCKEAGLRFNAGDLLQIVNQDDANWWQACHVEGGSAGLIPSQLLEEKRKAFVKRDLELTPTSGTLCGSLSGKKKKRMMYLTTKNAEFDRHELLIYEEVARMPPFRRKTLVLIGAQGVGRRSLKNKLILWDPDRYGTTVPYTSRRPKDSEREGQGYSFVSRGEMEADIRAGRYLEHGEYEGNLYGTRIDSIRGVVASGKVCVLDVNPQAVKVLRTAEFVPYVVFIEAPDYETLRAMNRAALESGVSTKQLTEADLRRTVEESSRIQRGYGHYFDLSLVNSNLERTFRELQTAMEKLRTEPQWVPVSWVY
Test: ITC; ITC200 at 25 °C; 200 mM NaCl, 20 mM Tris-HCl pH 7.5, 1 mM DTT; 350 μM mCherry-tagged peptide titrated into 55 μM MPP2 PSG module in the cell; single-site binding model
Conditions: both partners purified

GGGGSGGGGSGGGGSNSEEKKEYFI (domain or fragment) [bacterially produced mCherry-tagged SynCAM1 peptide (C-terminus)] was tested, and the Kd was 3.1 ± 0.239 µM.
